Reference: PMC9095613

Molecular target: Tva-HA-Fc (chicken)
Assay: not given
Details: not given

Substance | blocking of viral entry: % GFP-positive DF-1 cells (FACS) after incubation with the gp85 protein and infection with RCASBP (A)-EGFP; Tva on DF-1 cells (Figure 6C) (% GFP-positive cells)
E-gp85-flag wt (soluble gp85 of ALV-E ev-1) (natural protein) | 31
A-gp85-flag wt (soluble gp85 of ALV-A RSA) (natural protein) | 0.21

Molecular target: Tva-HA-Fc
Assay: co-IP
Details: parent: est. 1.0; read off a plot

Substance | ratio to parent
A-gp85-flag wt (soluble gp85 of ALV-A RSA) -155PWVNPF | 0.07
A-gp85-flag wt (soluble gp85 of ALV-A RSA) -201NFD | 0.8
A-gp85-flag wt (soluble gp85 of ALV-A RSA) -139S | 0.73
A-gp85-flag wt (soluble gp85 of ALV-A RSA) -266S | 0.43
